This note sets out measurements from PMC11329700.

B1: GST-Dyn1xA-PRR (dynamin 1xA proline-rich region, amino acids 746-864) [rat] / Endophilin A1 [rat (endogenous in rat brain synaptosomes)] (parent)
chain 1: NTTTVSTPMPPPVDDSWLQVQSVPAGRRSPTSSPTPQRRAPAVPPARPGSRGPAPGPPPAGSALGGAPPVPSRPGASPDPFGPPPQVPSRPNRAPPGVPSRSGQASPSRPESPRPPFDL
chain 2: MSVAGLKKQFHKATQKVSEKVGGAEGTKLDDDFKEMERKVDVTSRAVMEIMTKTIEYLQPNPASRAKLSMINTMSKIRGQEKGPGYPQAEALLAEAMLKFGRELGDDCNFGPALGEVGEAMRELSEVKDSLDMEVKQNFIDPLQNLHDKDLREIQHHLKKLEGRRLDFDYKKKRQGKIPDEELRQALEKFDESKEIAESSMFNLLEMDIEQVSQLSALVQAQLEYHKQAVQILQQVTVRLEERIRQASSQPRREYQPKPRMSLEFATGDGTQPNGGLSHTGTPKPAGVQMDQPCCRALYDFEPENEGELGFKEGDIITLTNQIDENWYEGMLHGQSGFFPINYVEILVALPH
B2: GST-Dyn1xA-PRR (dynamin 1xA proline-rich region, amino acids 746-864) [rat] / Amphiphysin 1 [rat (endogenous in rat brain synaptosomes)] (parent)
chain 1: B1 chain 1
chain 2: MADIKTGIFAKNVQKRLNRAQEKVLQKLGKADETKDEQFEEYVQNFKRQEAEGTRLQRELRGYLAAIKGMQEASMKLTESLHEVYEPDWYGREDVKMVGEKCDVLWEDFHQKLVDGSLLTLDTYLGQFPDIKNRIAKRSRKLVDYDSARHHLEALQSSKRKDESRISKAEEEFQKAQKVFEEFNVDLQEELPSLWSRRVGFYVNTFKNVSSLEAKFHKEIAVLCHKLYEVMTKLGDQHADKAFSIQGAPSDSGPLRIAKTPSPPEEASPLPSPTASPNHTLAPASPAPVRPRSPSQTRKGPPVPPLPKVTPTKELQQENIINFFEDNFVPEINVTTPSQNEVLEVKKEETLLDLDFDPFKPDVTPAGSAAATHSPMSQTLPWDLWTTSTDLVQPASGGSFNDFTQPQDTSLFTMQTDQNMAETEQALPTEPQAEEPPTTAAAPTAGLDLGLEMEEPKEEAAIPPGTDAGETVGTEGSTGEEAEAEKAALPAGEGESPEGAKIDVESTELASSESPQAAELEAGAPQEKVIPSVVIEPASNHEGEEHQETTTGTETREATEDVAPQGPAGEKQELATEPTPLDSQAATPAPAGAVDASLSAGDAAQELPPGFLYKVETLHDFEAANSDELTLQRGDVVLVVPSDSEADQDAGWLVGVKESDWLQYRDLATYKGLFPENFTRHLE

One experiment covers variants of B1. Nature of the experiment: GST pull-down, densitometric analysis of Western blots. The following applies: with Endophilin A1 [rat (endogenous in rat brain synaptosomes)]; parent: 100; read off a plot.
Consider chain 1 S106E S112E, for which the percent of parent was 48%.

As for chain 1 S29E S33E, the percent of parent stood at 31%.

In a further experiment the parent is B2. Described as above. The following applies: with Amphiphysin 1 [rat (endogenous in rat brain synaptosomes)]; parent: 100; read off a plot.
Take chain 1 S29E S33E: the percent of parent was found to be 98%.

Consider chain 1 S106E S112E, for which the percent of parent was determined as 91%.
